From patent US6500647 (MOGAM BIOTECHNOLOGY RESEARCH INSTITUTE, dated 2002) come the findings set out here.

Experiment [1] has as its target T1, PTH receptor of UMR106 cell line (rat osteoblast-like osteosarcoma cell line) (rat, UniProt P25961 27-591).
T1 construct: whole, on cells; The species follows from the cell line (rat); also called its receptor; the receptor
T1 sequence (looked up): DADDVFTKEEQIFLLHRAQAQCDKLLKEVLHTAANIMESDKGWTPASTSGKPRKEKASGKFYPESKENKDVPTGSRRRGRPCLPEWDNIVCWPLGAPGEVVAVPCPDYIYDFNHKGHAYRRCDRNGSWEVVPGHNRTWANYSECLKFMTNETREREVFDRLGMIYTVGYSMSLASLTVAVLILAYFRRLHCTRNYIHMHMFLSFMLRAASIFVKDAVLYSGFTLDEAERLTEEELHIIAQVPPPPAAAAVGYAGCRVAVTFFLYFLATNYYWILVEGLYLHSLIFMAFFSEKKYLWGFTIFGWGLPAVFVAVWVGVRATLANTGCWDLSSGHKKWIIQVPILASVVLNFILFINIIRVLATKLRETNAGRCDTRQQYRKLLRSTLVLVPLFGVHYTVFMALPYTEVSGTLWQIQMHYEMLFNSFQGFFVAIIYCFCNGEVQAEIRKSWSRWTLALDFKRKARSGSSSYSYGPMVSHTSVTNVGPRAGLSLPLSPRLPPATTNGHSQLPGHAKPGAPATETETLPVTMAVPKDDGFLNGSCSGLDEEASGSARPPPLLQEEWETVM
The experiment is described as follows: competition with 125I-(Nle8,18Tyr34)-bPTH (1-34) for binding to UMR106 cells, 15 C, 4 h. As for the experimental part: A binding test to PTH receptor was carried out as followings (see: Chohei Shigeno et al., The Journal of Biological Chemistry, 263(8):3864–3871(1988)): 10^5 UMR106 cells per well was added into a 24 well-plate and cultured for 4 to 8 days. Medium was exchanged every two days and it was exchanged daily at 3 days before the test. On the other hand, in order to prepare (Nle^{8,18}Tyr^34)-bovine PTH (1–34)-NH_2(bPTH (1–34)) (see: Gino V. Segre et al., JBC, 254(15) :6980–6986(1979)) which was labelled with a radioactive isotope, ^125I at a tyrosine residue of carboxy-terminus, bPTH (1–34) was iodinated with Na^125I using chloramine T (Sigma Chemical Co., USA) as a catalyst. […]
Binding affinity of PTH to its receptor was determined by comparing competitive inhibition of rhPTH (1–84) and shPTH (1–84) against ligand binding to the receptor by using the ^125I-labelled (Nle^{8,18}Tyr^34)-bPTH (1–34) as a ligand. […] The solution obtained after extraction was mixed with the solution obtained after washing with 0.5 ml of the binding buffer and counted for its radioactivity employing γ-counter.
Specific binding was determined by subtracting value of nonspecific binding measured by using each competitive hormone of 1 mM from value of binding radioactivity measured above.

Experiment [2] addresses T1, PTH receptor of UMR106 cell line (rat …). Nature of the experiment: cell-based or functional assay.

B1: synthetic human PTH (shPTH (1-84), Sigma Chemical Co., USA) (ligand, UniProt P01270 32-115, looked up)
chain: SVSEIQLMHNLGKHLNSMERVEWLRKKLQDVHNFVALGAPLAPRDAGSQRPRKKEDNVLVESHEKSLGEADKADVNVLTKAKSQ
notes: mature; Control hormone, bought; also called synthetic PTH
A word on the IC50: it is the concentration needed to halve the response being measured. A high value points to weaker potency. Consider B1, for which the IC50 in experiment [1] came to 18.6 nM. Further, the “EC50 (concentration of hormone required for stimulating production of intracellular cAMP to reach an increase of 50%)” value in experiment [2] came out at 1.9 nM.

B2: human recombinant PTH (rhPTH (1-84)) (ligand, UniProt P01270 32-115, looked up)
chain: SVSEIQLMHNLGKHLNSMERVEWLRKKLQDVHNFVALGAPLAPRDAGSQRPRKKEDNVLVESHEKSLGEADKADVNVLTKAKSQ
notes: mature; also called recombinant human PTH; purified human PTH
B2 had an IC50 in experiment [1] of 17.3 nM. Also, the “EC50 (concentration of hormone required for stimulating production of intracellular cAMP to reach an increase of 50%)” value in experiment [2] turned out to be 1.3 nM.
